Results on one molecule are retold here after patent publication US20140011978A1 (EPFL TTO, published 2014).

Common to all, as to experiment: ELISA: growth factor coated, Fg fragment in solution, A450 (methods analogous to Example 3)
In one assay the target is IGF-BP3 (UniProt P17936 28-291). As to the method:
(§1) ELISA plates were coated with cytokines or BSA and further incubated with TNC III1-5 to analyze binding of TNC III1-5 to a wide variety of cytokines. […] A large amount of heparin (4 μM) impaired binding of TNC III1-5 to these cytokines. Results are depicted in FIG. 3. Method: 50 nM of cytokine was coated for (1 hr, 37° C.). After blocking with 2% BSA (1 hr, RT). 100 nM TNC III1-5 was applied in PBST (0.05% tween, 0.1% bovine serum albumin (BSA)) (1 hr, RT). TNC III1-5 was detected with horseradish peroxidase (HRP)-anti-HIS in PBST (1 hr, RT) and developed with 3,3′,5,5′-tetramethylbenzidine (TMB), a soluble colorimetric HRP […]. Addition of sulfuric acid stop solution changes the color to yellow, enabling accurate measurement of the intensity at 450 nm using a spectrophotometer or plate reader. […] Heparin (4 μM) was added to TNC III1-5 to test the effect of blocking the heparin binding site of TNC III1-5, which has been defined as domain TNC III5 (Weber, Zimmermann, et al., 1995).
(§2) ELISA plates were coated with cytokines or BSA and further incubated with Fg β15-66 to analyze binding of […] to a wide variety of cytokines. […] Results are depicted in FIG. 4. Method: The methods were analogous to those used in Example 3.

The target of another assay is EGF. As for the experimental part:
as §1, §2

In a further assay the target is T1, TGF-β2 (UniProt P61812 303-414).
T1 sequence (looked up): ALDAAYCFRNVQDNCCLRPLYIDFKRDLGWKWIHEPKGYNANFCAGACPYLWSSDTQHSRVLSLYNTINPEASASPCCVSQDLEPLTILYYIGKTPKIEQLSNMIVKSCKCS
As to the method: as §1, §2

Another assay deals with T2, FGF-6 (UniProt P10767 38-208, limits assumed).
T2 sequence (looked up): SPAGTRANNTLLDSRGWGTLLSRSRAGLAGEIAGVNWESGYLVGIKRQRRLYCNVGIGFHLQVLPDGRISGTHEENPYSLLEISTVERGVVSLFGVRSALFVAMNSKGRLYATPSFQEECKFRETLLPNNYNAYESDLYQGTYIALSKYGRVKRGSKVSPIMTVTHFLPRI
As to the method: as §1, §2

The next assay has as its target T3, NT-3 (UniProt P20783 139-257).
T3 sequence (looked up): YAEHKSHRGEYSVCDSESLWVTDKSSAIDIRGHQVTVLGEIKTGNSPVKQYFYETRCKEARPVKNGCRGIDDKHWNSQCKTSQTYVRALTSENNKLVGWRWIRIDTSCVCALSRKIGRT
As to the method:
as §1, §2

A further assay concerns the target T4, PlGF-1 (UniProt P49763-2 19-149).
T4 sequence (looked up): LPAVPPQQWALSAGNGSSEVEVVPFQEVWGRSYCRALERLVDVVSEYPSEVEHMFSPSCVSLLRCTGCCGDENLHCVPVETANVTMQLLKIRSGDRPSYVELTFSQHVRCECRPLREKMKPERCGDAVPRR
As for the experimental part: as §1, §2

The next assay concerns the target T5, TGF-β3 (Natural form is a disulfide-linked homodimer; one protomer is given.).
T5 chain: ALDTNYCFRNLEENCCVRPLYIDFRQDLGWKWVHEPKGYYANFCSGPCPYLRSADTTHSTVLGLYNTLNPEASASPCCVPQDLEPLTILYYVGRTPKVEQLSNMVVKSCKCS
As for the experimental part: as §1, §2

Another assay concerns the target T6, BDNF (UniProt P23560 129-247).
T6 construct: also called brain-derived neurotrophic factor
T6 sequence (looked up): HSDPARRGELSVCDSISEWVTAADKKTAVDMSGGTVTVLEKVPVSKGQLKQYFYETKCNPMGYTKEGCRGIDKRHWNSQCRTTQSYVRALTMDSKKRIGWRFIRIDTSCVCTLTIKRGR
As for the experimental part: as §1, §2

The next assay addresses T7, FGF-10 (UniProt O15520 38-208).
T7 sequence (looked up): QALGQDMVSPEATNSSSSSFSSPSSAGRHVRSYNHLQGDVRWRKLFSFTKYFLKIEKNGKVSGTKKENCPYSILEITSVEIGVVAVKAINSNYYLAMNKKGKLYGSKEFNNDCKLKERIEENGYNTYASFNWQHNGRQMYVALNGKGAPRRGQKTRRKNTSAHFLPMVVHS
As to the method:
as §1, §2

Chain of IGF-BP3 (P17936 28-291 limits assumed): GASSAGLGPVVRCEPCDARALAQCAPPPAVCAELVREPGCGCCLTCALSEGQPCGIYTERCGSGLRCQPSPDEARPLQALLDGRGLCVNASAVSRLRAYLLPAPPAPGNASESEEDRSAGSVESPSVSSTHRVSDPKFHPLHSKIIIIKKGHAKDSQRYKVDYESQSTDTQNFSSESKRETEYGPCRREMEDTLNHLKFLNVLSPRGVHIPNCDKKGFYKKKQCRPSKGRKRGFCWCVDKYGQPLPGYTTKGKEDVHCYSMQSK

B1: Fg β15-66 (other)
chain: GSNQEQVSPLGHRPLDKKREEAPSLRPAPPPISGGGYRARPAKAAATQKKVERKAPDAGGCGHHHHHH
notes: Made as a GST fusion; GST was cleaved off; also called TG-Fg β15-66; fibrinogen β15-66 domain
As to B1, the binding result in the assay with IGF-BP3 is “binds”; with EGF, “no binding”; with TGF-β2, “binds”; in the assay with FGF-6, “no binding”; with NT-3, “binds”; with PlGF-1, “no binding”. Besides, the binding result in the assay with TGF-β3 is listed as “no binding”; with BDNF it was “binds”; in the assay with FGF-10 it was “binds”.
